Measurements reported in patent US20250019427A1 (BYOMASS, published 2025).

T1: Human Activin B (human, UniProt P09529 293-407)
T1 construct: Also used for the Activin B ligand of the ActRIIB/SMAD reporter assay, where the species is not restated
T1 sequence (looked up): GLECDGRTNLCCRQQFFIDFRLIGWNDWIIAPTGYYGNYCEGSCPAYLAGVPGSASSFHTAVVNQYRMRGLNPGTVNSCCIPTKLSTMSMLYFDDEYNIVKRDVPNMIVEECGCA

T2: GDF10 (UniProt P55107 369-478)
T2 sequence (looked up): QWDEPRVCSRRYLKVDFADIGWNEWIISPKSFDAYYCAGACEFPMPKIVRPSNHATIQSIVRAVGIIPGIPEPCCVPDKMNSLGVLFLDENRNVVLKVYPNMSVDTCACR

T3: Human BMP9 (human, UniProt Q9UK05 320-429)
T3 sequence (looked up): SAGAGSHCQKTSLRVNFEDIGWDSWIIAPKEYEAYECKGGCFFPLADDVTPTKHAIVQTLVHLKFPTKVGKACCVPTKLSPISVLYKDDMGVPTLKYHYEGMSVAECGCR

T4: Human BMP10 (human, UniProt O95393 317-424)
T4 sequence (looked up): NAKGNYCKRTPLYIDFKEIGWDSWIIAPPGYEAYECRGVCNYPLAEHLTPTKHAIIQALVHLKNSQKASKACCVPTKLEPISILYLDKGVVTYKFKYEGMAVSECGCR

T5: Human Activin A Fc (human, UniProt P08476 311-426)
T5 sequence (looked up): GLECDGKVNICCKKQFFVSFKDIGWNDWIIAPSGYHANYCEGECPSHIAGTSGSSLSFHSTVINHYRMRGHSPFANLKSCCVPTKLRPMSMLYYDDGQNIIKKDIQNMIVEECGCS

T6: GDF15 (Homo sapiens (Human), UniProt Q99988 30-308)
T6 sequence: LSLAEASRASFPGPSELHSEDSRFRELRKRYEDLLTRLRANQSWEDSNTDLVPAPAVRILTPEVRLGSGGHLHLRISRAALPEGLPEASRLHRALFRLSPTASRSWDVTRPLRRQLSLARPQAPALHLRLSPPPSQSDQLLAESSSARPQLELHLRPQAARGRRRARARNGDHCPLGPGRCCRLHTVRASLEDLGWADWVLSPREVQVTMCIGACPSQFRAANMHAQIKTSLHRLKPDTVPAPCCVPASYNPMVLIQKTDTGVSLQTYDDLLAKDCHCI

T7: GDNF (UniProt P39905 78-211)
T7 sequence (looked up): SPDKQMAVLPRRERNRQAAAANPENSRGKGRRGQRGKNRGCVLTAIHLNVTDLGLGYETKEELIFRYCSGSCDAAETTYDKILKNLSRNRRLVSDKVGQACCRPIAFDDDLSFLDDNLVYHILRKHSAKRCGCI

T8: Mouse GDF15 Fc (mouse, UniProt Q9Z0J7 189-303, limits assumed)
T8 construct: also called mouse GDF15Fc fusion
T8 sequence (looked up): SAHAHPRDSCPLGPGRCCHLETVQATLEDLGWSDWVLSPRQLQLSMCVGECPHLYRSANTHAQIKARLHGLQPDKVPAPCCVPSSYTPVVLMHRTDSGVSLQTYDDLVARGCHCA

T9: Cyno GDF15 Fc (cyno, UniProt G7PWZ3 193-308)
T9 construct: also called cyno GDF15-Fc fusion
T9 sequence: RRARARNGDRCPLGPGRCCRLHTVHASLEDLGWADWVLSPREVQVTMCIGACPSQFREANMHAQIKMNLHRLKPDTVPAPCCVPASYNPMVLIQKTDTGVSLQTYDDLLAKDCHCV


Assays:
Human Activin B = molecular target: T1, Human Activin B; assay: Octet BLI, IgG on tip, avid
GDF10 = molecular target: T2, GDF10; assay: Octet BLI, IgG on tip, avid
Human BMP9 = molecular target: T3, Human BMP9; assay: Octet BLI, IgG on tip, avid
Human BMP10 = molecular target: T4, Human BMP10; assay: Octet BLI, IgG on tip, avid
GDF8 = GDF8 (UniProt O14793 267-375); assay: Octet BLI, IgG on tip, avid
GDF11 = molecular target: T10, GDF11 (UniProt O95390 299-407); assay: Octet BLI, IgG on tip, avid
T10 construct: Also the GDF-11 ligand of the ActRIIB/SMAD reporter assay

Human Activin A Fc = molecular target: T5, Human Activin A Fc; assay: Octet BLI, IgG on tip, avid
GDF15 = molecular target: T6, GDF15; assay: cell-based or functional assay
GDNF = molecular target: T7, GDNF; assay: Octet BLI, IgG on tip, avid
Mouse GDF15 Fc = molecular target: T8, Mouse GDF15 Fc; assay: Octet BLI, Fab monovalent
Cyno GDF15 Fc = molecular target: T9, Cyno GDF15 Fc; assay: Octet BLI, Fab monovalent

T10 sequence (O95390 299-407 limits assumed): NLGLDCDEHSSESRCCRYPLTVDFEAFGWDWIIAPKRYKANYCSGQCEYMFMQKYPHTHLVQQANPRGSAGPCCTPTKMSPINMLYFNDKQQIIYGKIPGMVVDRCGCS

| Binder | binding result (Human Activin B) | binding result (GDF10) | binding result (Human BMP9) | binding result (Human BMP10) | binding result (GDF8) | binding result (GDF11) | binding result (Human Activin A Fc) | GDF15 - GFRAL RET pERK IC50 (pM) (GDF15) | GDF15 - GFRAL-RET Luciferase IC50 (pM) (GDF15) | Kd (GDNF) [nM] | binding result (GDNF) | Kd (Mouse GDF15 Fc) [nM] | Kd (Cyno GDF15 Fc) [nM] | GDF15 GFRAL RET pERK Fab IC50 pM (GDF15) |
| --- | --- | --- | --- | --- | --- | --- | --- | --- | --- | --- | --- | --- | --- | --- |
| Clone K IgG (antibody, V domains shown, IgG format) VH: QVQLVQSGAEVKKPGASVKVSCKASGYTFTNEGISWVRQAPGQGLEWMGWISAYTADTFYAQKLQGRVTMTTDTSTSTAYMELRSLRSDDTAVYYCARTRHDTSGLRFDYWGQGTLVTVSS VL: DIQMTQSPSSVSASVGDRVTITCRASQGIDSWLAWYQQKPGKAPKLLIYAASSLQSGVPSRFSGSGSGTDFTLTISSLQPEDFATYYCQQVHSFPITFGGGTKVEIKR | no binding (tested: 100 nM) | no binding (tested: 100 nM) | no binding (tested: 100 nM) | no binding (tested: 100 nM) | no binding (tested: 100 nM) | no binding (tested: 100 nM) | no binding (tested: 100 nM) | 187 | 813 | 333 |  |  |  |  |
| Clone S IgG (antibody, V domains shown, IgG format) VH: QVQLVQSGAEVKKPGASVKVSCKASGYTFTSYGINWVRQAPGQGLEWMGWITAYSGDTNYAQKLQGRVTMTTDTSTSTAYMELRSLRSDDTAVYYCARGPGQYADVDVWGQGTMVTVSS VL: DIQLTQSPSSVSASVGDRVTITCRASQGISPWLAWYQQKPGKAPKLLIYAASSLQSGVPSRFSGSGSGTDFTLTISSLQPEDFATYYCQQANSFPITFGGGTKVEIKR | no binding (tested: 100 nM) | no binding (tested: 100 nM) | no binding (tested: 100 nM) | no binding (tested: 100 nM) | no binding (tested: 100 nM) | no binding (tested: 100 nM) | no binding (tested: 100 nM) |  |  |  | no binding (tested: 100 nM) |  |  |  |
| Clone H IgG (antibody, V domains shown, IgG format) VH: QVQLVQSGAEVKKPGSSVKVSCKASGGTFSSYYISWVRQAPGQGLEWMGGIAPISGTASYAQKFQGRVTITADESTSTAYMELSSLRSEDTAVYYCARGLAYDGYFDLWGRGTLVTVSS VL: not shown | no binding (tested: 100 nM) | no binding (tested: 100 nM) | no binding (tested: 100 nM) | no binding (tested: 100 nM) | no binding (tested: 100 nM) | no binding (tested: 100 nM) | no binding (tested: 100 nM) | 254 | 200 |  | no binding (tested: 100 nM) |  |  |  |
| Clone M Fab (Fab, V domains shown, Fab format) VH: QVQLVQSGAEVKKPGASVKVSCKASGYTFDSYGINWVRQAPGQGLEWMGWISAYSGDTAYAQELQGRVTMTTDTSTSTAYMELRSLRSDDTAVYYCVRDTQYGGSPYWGQGTLVTVSS VL: EIVMTQSPATLSVSPGERATLSCRASQSVSSNLAWYQQKPGQAPRLLIYGASTRATGIPARFSGSGSGTEFTLTISSLQSEDFAVYYCQQYNNWPITFGGGTKVEIK |  |  |  |  |  |  |  |  |  |  |  | 31.4 | 1.91 | 1370 pM |
| Clone K Fab (Fab, V domains shown, Fab format) VH: QVQLVQSGAEVKKPGASVKVSCKASGYTFTNEGISWVRQAPGQGLEWMGWISAYTADTFYAQKLQGRVTMTTDTSTSTAYMELRSLRSDDTAVYYCARTRHDTSGLRFDYWGQGTLVTVSS VL: DIQMTQSPSSVSASVGDRVTITCRASQGIDSWLAWYQQKPGKAPKLLIYAASSLQSGVPSRFSGSGSGTDFTLTISSLQPEDFATYYCQQVHSFPITFGGGTKVEIK |  |  |  |  |  |  |  |  |  |  |  | 333 | 2.4 | 169 pM |

Other lines, results leading:

| binding result (Human Activin B) | binding result (GDF10) | binding result (Human BMP9) | binding result (Human BMP10) | binding result (GDF8) | binding result (GDF11) | binding result (Human Activin A Fc) | GDF15 - GFRAL RET pERK IC50 (pM) (GDF15) | GDF15 - GFRAL-RET Luciferase IC50 (pM) (GDF15) | Kd (GDNF) [nM] | binding result (GDNF) | Kd (Mouse GDF15 Fc) [nM] | Kd (Cyno GDF15 Fc) [nM] | GDF15 GFRAL RET pERK Fab IC50 pM (GDF15) | Binder |
| --- | --- | --- | --- | --- | --- | --- | --- | --- | --- | --- | --- | --- | --- | --- |
| no binding (tested: 100 nM) | no binding (tested: 100 nM) | no binding (tested: 100 nM) | no binding (tested: 100 nM) | no binding (tested: 100 nM) | no binding (tested: 100 nM) | no binding (tested: 100 nM) | 30.3 | 110 |  |  |  |  |  | Clone J IgG (antibody, V domains shown, IgG format) VH: QVQLVQSGAEVKKPGASVKVSCKASGYTFTSYGINWVRQAPGQGLEWMGWIDAYSGSTNYAQKLQGRVTMTTDTSTSTAYMELRSLRSDDTAVYYCARGPGQYADVDVWGQGTMVTVSS VL: DIQMTQSPSSVSASVGDRVTITCRASQGISSWLAWYQQKPGKAPKLLIYAASSLQSGVPSRFSGSGSGTDFTLTISSLQPEDFATYYCQQANSFPITFGGGTKVEIKR |
| no binding (tested: 100 nM) | no binding (tested: 100 nM) | no binding (tested: 100 nM) | no binding (tested: 100 nM) | no binding (tested: 100 nM) | no binding (tested: 100 nM) | no binding (tested: 100 nM) |  |  |  | no binding (tested: 100 nM) |  |  |  | Clone T IgG (antibody, V domains shown, IgG format) VH: QVQLVQSGAEVKKPGASVKVSCKASGYTFTSYGINWVRQAPGQGLEWMGWITAYSGDTNYAQKLQGRVTMTTDTSTSTAYMELRSLRSDDTAVYYCARGPGQYADVDVWGQGTMVTVSS VL: DIQMTQSPSSVSASVGDRVTITCRASQGISSWLAWYQQKPGKAPKLLIYAASSLQSGVPSRFSGSGSGTDFTLTISSLQPEDFATYYCQQASQFPITFGGGTKVEIKR |
| no binding (tested: 100 nM) | no binding (tested: 100 nM) | no binding (tested: 100 nM) | no binding (tested: 100 nM) | no binding (tested: 100 nM) | no binding (tested: 100 nM) | no binding (tested: 100 nM) | 35.6 |  |  |  |  |  |  | Clone P IgG (antibody, V domains shown, IgG format) VH: QVQLVQSGAEVKKPGATVKVSCKASGYTFDSYGIHWVRQAPGQGLEWMGWITAYSGDTVYAQKLQGRVTMTTDTSTSTAYMELRSLRSDDTAVYYCARESGQTSSALGPWGQGTLVTVSS VL: DIQMTQSPSSVSASVGDRVTITCRASQGISRWLAWYQQKPGKAPKLLIYAASSLQSGVPSRFSGSGSGTDFTLTISSLQPEDFATYYCQQGASFPLTFGGGTKVEIKR |
|  |  |  |  |  |  |  |  |  |  |  | 229 | 1.56 | 2.1 µM | Clone L Fab (Fab, V domains shown, Fab format) VH: QVQLVQSGAEVKKPGASVKVSCKASGYTFASYDIIWVRQAPGQGLEWMGWISALSGDTVYAQKLQGRVTMTTDTSTSTAYMELRSLRSDDTAVYYCARTRHDTSGIRFDYWGQGTLVTVSS VL: DIQMTQSPSSVSASVGDRVTITCRASQGIDSWLAWYQQKPGKAPKLLIYAASSLQSGVPSRFSGSGSGTDFTLTISSLQPEDFATYYCQQVHSFPITFGGGTKVEIK |
